Results reported in patent publication US20140105889A1 (published 2014).

Legend:
mouse FcγRIV = target: T1, mouse FcγRIV (mouse); assay: SPR (Biacore), antibody captured on Protein L, mouse FcγR as analyte, pH 7.4, 25 C
T1 construct: Bought soluble receptor; also called mFcgRIV; mFcgR IV

[1] = target: T2, human FcRn (soluble human FcRn complexed with beta2-microglobulin) (human, UniProt P61769 21-119); assay: SPR (Biacore), pH 7.0, 25 C, antibody captured by Protein L, human FcRn as analyte
T2 construct: also called hFcRn

FcγRIIb = target: T3, FcγRIIb (human, UniProt P31994 43-217, limits assumed); assay: SPR (Biacore), antibody captured on chip, FcγR as analyte, method of Example 14
T3 construct: Soluble analyte in Biacore; also called FcgRIIb; FcγIIB
T3 sequence: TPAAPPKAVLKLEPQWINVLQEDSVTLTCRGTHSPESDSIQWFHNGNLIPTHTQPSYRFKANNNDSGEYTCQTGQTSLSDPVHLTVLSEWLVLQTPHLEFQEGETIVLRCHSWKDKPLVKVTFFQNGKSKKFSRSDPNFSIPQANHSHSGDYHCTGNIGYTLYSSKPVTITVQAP

[2] = target: T4, human FcRn (soluble human FcRn complexed with beta2-microglobulin) (human, UniProt P61769 21-119); assay: Biacore SPR, antibody captured on Protein L, human FcRn analyte, pH 7.0
T4 construct: Soluble human FcRn complexed with beta2-microglobulin; also called hFcRn

FcγRIIIa type V = target: T5, FcγRIIIa type V (human, UniProt P08637 17-208, limits assumed); assay: SPR (Biacore), antibody captured on chip, FcγR as analyte, method of Example 14
T5 construct: Soluble analyte in Biacore; also called FcγRIIIaV; FcγRIIIa(V)
T5 sequence (P08637 other isoform, or with tags, fused parts or gaps limits assumed): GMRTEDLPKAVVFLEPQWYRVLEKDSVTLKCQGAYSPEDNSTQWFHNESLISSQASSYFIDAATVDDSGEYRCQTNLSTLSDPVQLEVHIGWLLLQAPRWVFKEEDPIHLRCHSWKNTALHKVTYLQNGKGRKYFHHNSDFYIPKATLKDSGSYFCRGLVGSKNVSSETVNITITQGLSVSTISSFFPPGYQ

T1 sequence (A0A0B4J1G0 21-203): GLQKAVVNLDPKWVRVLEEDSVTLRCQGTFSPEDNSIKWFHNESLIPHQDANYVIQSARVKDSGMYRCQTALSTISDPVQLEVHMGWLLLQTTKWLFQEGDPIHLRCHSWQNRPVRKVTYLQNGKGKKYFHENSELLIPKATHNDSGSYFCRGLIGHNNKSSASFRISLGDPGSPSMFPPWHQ

B1: VH3/L(WT)-IgG1-F140 (antibody)
heavy: QVQLQESGPGLVKPSETLSLTCAVSGHSISHDHAWSWVRQPPGEGLEWIGFISYSGITNYNPSLQGRVTISRDNSKNTLYLQMNSLRAEDTAVYYCARSLARTTAMDYWGEGTLVTVSSASTKGPSVFPLAPSSKSTSGGTAALGCLVKDYFPEPVTVSWNSGALTSGVHTFPAVLQSSGLYSLSSVVTVPSSSLGTQTYICNVNHKPSNTKVDKKVEPKSCDKTHTCPPCPAPELLGGPKVFLFPPKPKDTLYISRTPEVTCVVVDVSHEDPEVKFNWYVDGVEVHNAKTKPREEQYNSTYRVVSVLTPLHQDWLNGKEYKCKVSNKALPAPIEKTISKAKGQPREPQVYTLPPSRDELTKNQVSLTCLVKGFYPSDIAVEWESNGQPENNYKTTPPVLDSDGSFFLYSKLTVDKSRWQQGNVFSCSVMHEALHYHYTQKSLSLSP
light: not shown
notes: copies: 2 + 2
B1 was tested, and the “BINDING AMOUNT (RU)” value (mouse FcγRIV) was 108 RU.

B2: antibody with VH3-IgG1-F157 heavy chain and L(WT)-CK light chain (antibody)
heavy: QVQLQESGPGLVKPSETLSLTCAVSGHSISHDHAWSWVRQPPGEGLEWIGFISYSGITNYNPSLQGRVTISRDNSKNTLYLQMNSLRAEDTAVYYCARSLARTTAMDYWGEGTLVTVSSASTKGPSVFPLAPSSKSTSGGTAALGCLVKDYFPEPVTVSWNSGALTSGVHTFPAVLQSSGLYSLSSVVTVPSSSLGTQTYICNVNHKPSNTKVDKKVEPKSCDKTHTCPPCPAPELLGGPSVFLFPPKPKDTLMISRTAEVTCVVVDVSHEDPEVKFNWYVDGVEVHNAKTKPREEQYNSTYRVVSVLTPLHQDWLNGKEYKCKVSNKALPAPIEKTISKAKGQPREPQVYTLPPSRDELTKNQVSLTCLVKGFYPSDIAVEWESNGQPENNYKTTPPVLDSDGSFFLYSKLTVDKSRWQQGNVFSCSVLHEALHYHYTQKSLSLSP
light: not shown
notes: copies: 2 + 2
In the case of B2, the “BINDING AMOUNT (RU)” value (mouse FcγRIV) is reported as 243 RU.

B3: IgG1-F928 (antibody, name in EU numbering)
heavy: QVQLQESGPGLVKPSETLSLTCAVSGHSISHDHAWSWVRQPPGEGLEWIGFISYSGITNYNPSLQGRVTISRDNSKNTLYLQMNSLRAEDTAVYYCARSLARTTAMDYWGEGTLVTVSSASTKGPSVFPLAPSSKSTSGGTAALGCLVKDYFPEPVTVSWNSGALTSGVHTFPAVLQSSGLYSLSSVVTVPSSSLGTQTYICNVNHKPSNTKVDKKVEPKSCDKTHTCPPCPAPELLGGPSVFLFPPKPKDTLYISRTPEVTCVVVDVSHEDPEVKFNWYVDGVEVHNAKTKPREEQYNSTYRVVSVLQVLHADWLNGKEYKCKVSNKALPAPIEKTISKAKGQPREPQVYTLPPSRDELTKNQVSLTCLVKGFYPSDIAVEWESNGQPENNYKTTPPVLDSDGSFFLYSKLTVDKSRWQQGNVFSCSVMHEALHYHITQKSLSLSP
light: not shown
B3 gave a Kd [1] of 29 nM.

B4: antibody with VH3-IgG1-F424 heavy chain and L(WT)-CK light chain (antibody)
heavy: QVQLQESGPGLVKPSETLSLTCAVSGHSISHDHAWSWVRQPPGEGLEWIGFISYSGITNYNPSLQGRVTISRDNSKNTLYLQMNSLRAEDTAVYYCARSLARTTAMDYWGEGTLVTVSSASTKGPSVFPLAPSSKSTSGGTAALGCLVKDYFPEPVTVSWNSGALTSGVHTFPAVLQSSGLYSLSSVVTVPSSSLGTQTYICNVNHKPSNTKVDKKVEPKSCDKTHTCPPCPAPELLGGPKVFLFPPKPKDTLMISRTAEVTCVVVDVSHEDPEVKFNWYVDGVEVHNAKTKPREEQYNSTYRVVSVLTPLHQDWLNGKEYKCKVSNKALPAPIEKTISKAKGQPREPQVYTLPPSRDELTKNQVSLTCLVKGFYPSDIAVEWESNGQPENNYKTTPPVLDSDGSFFLYSKLTVDKSRWQQGNVFSCSVLHEALHYHYTQKSLSLSP
light: not shown
notes: copies: 2 + 2
B4 was tested, and the “BINDING AMOUNT (RU)” value (mouse FcγRIV) was 138 RU.

B5: IL6R-BP210/IL6R-L (antibody, human IgG1)
heavy: QVQLQESGPGLVKPSETLSLTCAVSGHSISHDHAWSWVRQPPGEGLEWIGFISYSGITNYNPSLQGRVTISRDNSKNTLYLQMNSLRAEDTAVYYCARSLARTTAMDYWGEGTLVTVSSASTKGPSVFPLAPSSKSTSGGTAALGCLVKDYFPEPVTVSWNSGALTSGVHTFPAVLQSSGLYSLSSVVTVPSSSLGTQTYICNVNHKPSNTKVDKKVEPKSCDKTHTCPPCPAPELLGDDSVFLFPPKPKDTLMISRTPEVTCVVVDVSDEDGEVKFNWYVDGVEVHNAKTKPREEQYNSTYRVVSVLTVLHQDWLNGKEYKCKVSNKALPRPIEKTISKAKGQPREPQVYTLPPSRDELTKNQVSLTCLVKGFYPSDIAVEWESNGQPENNYKTTPPVLDSDGSFFLYSKLTVDKSRWQQGNVFSCSVMHEALHNHYTQESLSLSP
light: DIQMTQSPSSLSASVGDRVTITCRASQDISSYLNWYQQKPGKAPKLLIYYTSRLHSGVPSRFSGSGSGTDFTFTISSLQPEDIATYYCQQGNTLPYTFGQGTKVEIK
notes: Anti-human IL-6 receptor IgG1 Fc variant
Work on B5 yielded a Kd (FcγRIIb) of 39000 nM.

B6: IgG1-F271 (antibody, name in EU numbering)
heavy: QVQLQESGPGLVKPSETLSLTCAVSGHSISHDHAWSWVRQPPGEGLEWIGFISYSGITNYNPSLQGRVTISRDNSKNTLYLQMNSLRAEDTAVYYCARSLARTTAMDYWGEGTLVTVSSASTKGPSVFPLAPSSKSTSGGTAALGCLVKDYFPEPVTVSWNSGALTSGVHTFPAVLQSSGLYSLSSVVTVPSSSLGTQTYICNVNHKPSNTKVDKKVEPKSCDKTHTCPPCPAPELLGGPSVFLFPPKPKDTLYISRTPEVTCVVVDVSHEDPEVKFNWYVDGVEVHNAKTKPREEQYNSTYRVVSVLTVLHQDWLNGKEYKCKVSNKALPAPIEKTISKAKGQPREPQVYTLPPSRDELTKNQVSLTCLVKGFYPSAIAVEWESNGQPENNYKTTPPVLDSDGSFFLYSKLTVDKSRWQQGNVFSCSVFHEALHYHYTQKSLSLSP
light: not shown
notes: Fc variant of VH3-IgG1; copies: 2 + 2
B6 gave a Kd [2] of 690 nM.

B7: IgG1-F281 (antibody, name in EU numbering)
heavy: QVQLQESGPGLVKPSETLSLTCAVSGHSISHDHAWSWVRQPPGEGLEWIGFISYSGITNYNPSLQGRVTISRDNSKNTLYLQMNSLRAEDTAVYYCARSLARTTAMDYWGEGTLVTVSSASTKGPSVFPLAPSSKSTSGGTAALGCLVKDYFPEPVTVSWNSGALTSGVHTFPAVLQSSGLYSLSSVVTVPSSSLGTQTYICNVNHKPSNTKVDKKVEPKSCDKTHTCPPCPAPELLGGPSVFLFPPKPKDTLYISRTPEVTCVVVDVSHEDPEVKFNWYVDGVEVHNAKTKPREEQYNSTYRVVSVLTPLHQDWLNGKEYKCKVSNKALPAPIEKTISKAKGQPREPQVYTLPPSRDELTKNQVSLTCLVKGFYPSDIAVEWASNGQPENNYKTTPPVLDSDGSFFLYSKLTVDKSRWQQGNVFSCSVFHEALHYHYTQKSLSLSP
light: not shown
notes: as for B6
B7 was tested, and the Kd [2] was 92 nM.

B8: IgG1-F919 (antibody, name in EU numbering)
heavy: QVQLQESGPGLVKPSETLSLTCAVSGHSISHDHAWSWVRQPPGEGLEWIGFISYSGITNYNPSLQGRVTISRDNSKNTLYLQMNSLRAEDTAVYYCARSLARTTAMDYWGEGTLVTVSSASTKGPSVFPLAPSSKSTSGGTAALGCLVKDYFPEPVTVSWNSGALTSGVHTFPAVLQSSGLYSLSSVVTVPSSSLGTQTYICNVNHKPSNTKVDKKVEPKSCDKTHTCPPCPAPELLGGPSVFLFPPKPKDTLYISRTPEVTCVVVDVSHEDPEVKFNWYVGGVEVHNAKTKPREEQYNSTYRVVSVLTVLHQDWLNGKEYKCKVSNKALPAPIEKTISKAKGQPREPQVYTLPPSRDELTKNQVSLTCLVKGFYPSDIAVEWESAGQPEANYKTTPPVLDSDGSFFLYSKLTVDKSRWQQGNVFSCSVMHEALHYHYTQKSLSLSP
light: not shown
With B8 the Kd [1] was 330 nM.

B9: IgG1-F276 (antibody, name in EU numbering)
heavy: QVQLQESGPGLVKPSETLSLTCAVSGHSISHDHAWSWVRQPPGEGLEWIGFISYSGITNYNPSLQGRVTISRDNSKNTLYLQMNSLRAEDTAVYYCARSLARTTAMDYWGEGTLVTVSSASTKGPSVFPLAPSSKSTSGGTAALGCLVKDYFPEPVTVSWNSGALTSGVHTFPAVLQSSGLYSLSSVVTVPSSSLGTQTYICNVNHKPSNTKVDKKVEPKSCDKTHTCPPCPAPELLGGPSVFLFPPKPKDTLYISRTPEVTCVVVDVSHEFPEVKFNWYVDGVEVHNAKTKPREEQYNSTYRVVSVLTPLHQDWLNGKEYKCKVSNKALPAPIEKTISKAKGQPREPQVYTLPPSRDELTKNQVSLTCLVKGFYPSDIAVEWASNGQPENNYKTTPPVLDSDGSFFLYSKLTVDKSRWQQGNVFSCSVMHEALHYHYTQKSLSLSP
light: not shown
notes: as for B6
B9 gave a Kd [2] of 41 nM.

B10: IgG1-F273 (antibody, name in EU numbering)
heavy: QVQLQESGPGLVKPSETLSLTCAVSGHSISHDHAWSWVRQPPGEGLEWIGFISYSGITNYNPSLQGRVTISRDNSKNTLYLQMNSLRAEDTAVYYCARSLARTTAMDYWGEGTLVTVSSASTKGPSVFPLAPSSKSTSGGTAALGCLVKDYFPEPVTVSWNSGALTSGVHTFPAVLQSSGLYSLSSVVTVPSSSLGTQTYICNVNHKPSNTKVDKKVEPKSCDKTHTCPPCPAPELLGGPSVFLFPPKPKDTLYISRTPEVTCVVVDVSHEDPEVKFNWYVDGVEVHNAKTKPREEQYNSTYRVVSVLTVLHQDWLNGKEYKCKVSNKALPAPIEKTISKAKGQPREPQVYTLPPSRDELTKNQVSLTCLVKGFYPSDIAVEWASNGQPENNYKTTPPVLDSDGSFFLYSKLTVDKSRWQQGNVFSCSVFHEALHYHYTQKSLSLSP
light: not shown
notes: as for B6
B10 showed a Kd [2] of 650 nM.

B11: IL6R-BP207/IL6R-L (antibody, human IgG1)
heavy: QVQLQESGPGLVKPSETLSLTCAVSGHSISHDHAWSWVRQPPGEGLEWIGFISYSGITNYNPSLQGRVTISRDNSKNTLYLQMNSLRAEDTAVYYCARSLARTTAMDYWGEGTLVTVSSASTKGPSVFPLAPSSKSTSGGTAALGCLVKDYFPEPVTVSWNSGALTSGVHTFPAVLQSSGLYSLSSVVTVPSSSLGTQTYICNVNHKPSNTKVDKKVEPKSCDKTHTCPPCPAPDLLGGDSVFLFPPKPKDTLMISRTPEVTCVVVDVSHEDPEVKFNWYVDGVEVHNAKTKPREEQYNSTYRVVSVLTVLHQDWLNGKEYKCKVSNKALPRPIEKTISKAKGQPREPQVYTLPPSRDELTKNQVSLTCLVKGFYPSDIAVEWESNGQPENNYKTTPPVLDSDGSFFLYSKLTVDKSRWQQGNVFSCSVMHEALHNHYTQESLSLSP
light: DIQMTQSPSSLSASVGDRVTITCRASQDISSYLNWYQQKPGKAPKLLIYYTSRLHSGVPSRFSGSGSGTDFTFTISSLQPEDIATYYCQQGNTLPYTFGQGTKVEIK
notes: as for B5
For B11, the Kd (FcγRIIb) was 640 nM and the Kd (FcγRIIIa type V) was 65000 nM.
